Experimental data reported in patent publication US20240425588A1 (published 2024).
Residue numbers refer to the chain shown, from its start.

B1: 45.75D4.D3.D9 (antibody, V domains shown)
VH: EVQLQQSGPELVKPGASMKMSCKASGYKFTSYVMHWVKQKPGQGLEWIGYIDPYNDGSKYNEKFKGKATLTSDKSSSIAYMELSSLTSEDSAVFYCARGGSRGWYFDVWGAGTTVTVSS
VL: DIQMTQSPASLSASVGETVTFTCRTNENIYSYLTWYQQKQGKSPQVLVYNAKTLAEGVPSRFSGSGSGTQFSLKINSLQPEDFGSYFCQHHFGNPLTFGAGTKLELK
B2: 45.102D4.C12.C6 (antibody, V domains shown)
VH: EVQLQQSGPELVKPGASVKMSCKASGYTFTTYVIHWVKQKPGQGLEWIGYINPYNDGTKYNEKFKVKATLTSDKSSSTAYMELSSLTSEDSAVYYCARSFYVNYGFAYWGQGTLVTVSA
VL: DIVMTQAHKFMSTSVGDRVSITSKASQDVRTAVAWYQQKPGQSPKLLIYSASYRYTGVPDRFTGSGSGADFTFTISSVQAEDLAVYYCQQHYITPWTFGGGTKLEIK
B3: 45.49H11.H11 (antibody, V domains shown)
VH: B2 VH with A24T, G26K, T31N, I34L, V66G, F100Y, Y101Q, V102S, A107G
VL: DIVMTQSHKFMSTSVGDRVSITCKASQHVSTAVVWYRQIPGQSPKILINSASYRYTGVPDRFTGSGSGTDFTFTISSVQAEDLAVYYCQQHYSIPWTFGGGTKLEIK
B4: 45.3D7.F7 (antibody, V domains shown)
VH: QVQLQQSGPELVKPGASVKISCKASGYGFSGYWMNWVKQGPGKGLEWIGRIFPGDGDTDYNGKLKDKATLTAYKSSSTAYLQLSSLTSEDSAVYFCARWLGGFTSWGQGTLVTVSA
VL: QIVLSQSPAILSASPGEKVTMTCRASASVSYMHWYQQKPGSSPKPWIYATSNLASGVPARFSGSGSGTSYSLTISRVEAEDAATYYCQQWSSDPPTFGAGTKLELK
B5: 45.32B10.A4 (antibody, V domains shown)
VH: EVQLVESGGVLVKPGGSLKLSCAASGFTFSNYVMSWVRQTPEKRLEWVATITSGGTYTYYPDSVKGRFTISRDNAKNILYLQMSSLRSEDTALYYCTRWLLSLYAMDYWGQGTSVTVSS
VL: DIQMTQTTSSLSASLGDRVTITCRASQDISNFLNWYQQKPDGTVKLLIYYTSRLHSGVPSRFSGSGSGTDYSLTISNLEQEDIATYFCQQGKTYPYTFGGGTKVEIK
B6: 45.56F7.A1 (antibody, V domains shown)
VH: B5 VH with V10A, V33A, T52S, T56S, I78T, T97A
VL: B5 VL with I2F, T22S, A25S, F32Y, Y50R, Q80R, Y94P, V104L
B7: 32B10 Original (antibody, V domains shown)
VH: B5 VH
VL: B5 VL
B8: hu50C2 HAM (45.50C2.A6) (antibody, V domains shown)
VH: QVQLQESGPGLVKPSETLSLTCTVSGFSLTNYNINWIRQPPGKGLEWIGVIWNGGGTNYNSAFMSRVTISKDTSKNQVSLKLSSVTAADTAVYYCVREAYFSNYGFYFDYWGQGTLVTVSS
VL: DIQMTQSPSSLSASVGDRVTITCSASSSISSNYLHWYQQKPGKAPKLLIYRTSNLASGVPSRFSGSGSGTDFTLTISSLQPEDFATYYCQQGSSIPRTFGGGTKVEIK
B9: hu50C2 (45.50C2.A6) (antibody, V domains shown)
VH: B8 VH with N53T
VL: B8 VL
B10: 50C2 Affinity Matured (HAM) (antibody, V domains shown)
VH: B8 VH
VL: B8 VL
B11: 50C2 Humanized (Hu) (antibody, V domains shown)
VH: B8 VH with N53T
VL: B8 VL
B12: 45.31G8.E9 (antibody, V domains shown)
VH: QIQLQQSGAELVRPGTSVKMSCKAVGYTFTNYWINWVKQRPGHGFEWIGDIYPGGYYINYNEKFKGKATLTADTSSSTAYMQLSSLTSEDSAIYYCARGYGSYAMDYWGQGTSVTVSS
VL: DIVMTQSQKFMSTSVGDRVSITCKASQNVRTDVVWYQQKPGQSPKALIFLASNRHTGVPDRFTGSGSGTDFTLTISNVQSEDLADYFCLQHWNYPYTFGGGTKLEIK
B13: hu32B10 HAM (45.32B10.A4) (antibody, V domains shown)
VH: EVQLLESGGGLVQPGGSLRLSCAASGFTFSNYVMSWVRQAPGKGLEWVSTITSGGTYTYYPDSVKGRFTISRDNSKNTLYLQMNSLRAEDTAVYYCTRWLLSLYAMDYWGQGTTVTVSS
VL: DIQMTQSPSSLSASVGDRVTITCRASQDISNFLNWYQQKPGKAVKLLLYYTSRLHSGVPSRFSGSGSGTDYTLTISSLQPEDFATYFCQQFKTYPYTFGGGTKVEIK
B14: hu32B10 (45.32B10.A4) (antibody, V domains shown)
VH: B13 VH
VL: B13 VL with F91G
B15: 32B10 Affinity Matured (HAM) (antibody, V domains shown)
VH: B13 VH
VL: B13 VL
B16: 32B10 Humanized (Hu) (antibody, V domains shown)
VH: B13 VH
VL: B13 VL with F91G
B17: 50C2 Original (antibody, V domains shown)
VH: QVQLKESGPGLVAPSQSLSITCTVSGFSLTNYNINWIRQPPGKGLEWLGVIWTGGGTNYNSAFMSRLSISKDNSKSQVFLKMNRLQTDDTAIYYCVREAYFSNYGFYFDYWGQGTTLTVSS
VL: EIVLTQSPTTMAASPGEKITITCSASSSISSNYLHWYQQKPGFSPKLLIYRTSNLASGVPARFSGSGSGTSYSLTIGTMEAEDVATYYCQQGSSIPRTFGGGTKLEIK
B18: 45.32A8.G6 (antibody, V domains shown)
VH: B17 VH with Q16H, V50I, R66T, S70N, L85M, A91T, A99T, S102N, G114S
VL: B17 VL
B19: 45.50C2.A6 (antibody, V domains shown)
VH: B17 VH
VL: B17 VL
B20: 45.87B8.H2.H5 (antibody, V domains shown)
VH: DVQLQESGPGLVKPSQSLSLTCTVTGYSITSAYDWHWIRLFPGHILEWMGYISYSGNTIYNPSLKSRISITHDTSKNHFFLKLNSVTTEDTATYYCARGSFWYFDVWGAGTTVTVSS
VL: DIQMTQSPASLSASVGETVTITCRVSEHIYNYLAWYQQKQGKSPQLLVYNAKTLAEGVPSRFSGSGSGTQFSLKINSLQPEDFGTYYCQHNYGNPLTFGAGTKVELK
B21: 45.86C5.C3 (antibody, V domains shown)
VH: B20 VH with A32G, L40H, H44N, Y54D, N61S, T88S
VL: B20 VL with H28N, N31S, A51T, T85S, N91H, V104L
B22: 45.62B12.G5 (antibody, V domains shown)
VH: B20 VH with L40H, H44N, S53R, Y54N, N57S, I59N, S63L, K76Q, F80S, S100L
VL: B20 VL with V25A, H28N, A34T, T85S, N91H, V104L

Key:
[1] = molecular target: T1, recombinant human TIGIT-His (SinoBiological) (UniProt Q495A1 22-141); assay: Biacore; 25°C
T1 chain: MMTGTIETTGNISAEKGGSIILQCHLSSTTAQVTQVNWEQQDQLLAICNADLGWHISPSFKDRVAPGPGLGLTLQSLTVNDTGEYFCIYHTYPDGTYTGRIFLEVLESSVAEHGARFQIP

[2] = molecular target: T1, recombinant human TIGIT-His …; assay: Biacore
Cynomolgus TIGIT = assay: Biacore

Binder	Kd [1] [nM]	Kd [2] [nM]	Kd (Cynomolgus TIGIT) [nM]
B1	1.09		
B2	1.23		
B3	1.04		
B4	4.47		
B5	0.53	0.53	
B6	12		
B7			8.7
B8		4.17	
B9		1.46	
B10			19.2
B11			69.5
B12	0.776		
B13		0.271	
B14		1.61	
B15			6.73
B16			26
B17			45.9
B18	0.428		
B19	0.386	0.386	
B20	4.75		
B21	0.784		
B22	0.862		
